Sequences and labels used below:
B1: S451-1140 IgG (antibody, V domains shown)
VH: EVQLVESGGGLVPPGGSLRLSCAASGFIFSNYAMTWVRQAPGKGLEWVSAISGGGGSTDYADSVKGRFTISRDNSKNTLYLQMNSLRAEDTAVYYCAKDLFGSGWSLFDNWGQGTLVTVSS
VL: not shown
B2: S451-1140 Fab (Fab, V domains shown)
VH: B1 VH
VL: not shown
B3: S728-1157 IgG (antibody, V domains shown)
VH: EVQLVESGGGLVQPGGSLRLSCAASGLLVSRNYMNWVRQAPGKGLEWVSIIYSGGSTFYADSVEGRFTISRDESKNTLYLQMNSLRTDDTAVYYCARDLSDYGGIDCWGQGTLVTVSS
VL: ELTQPLSVSMALGQTARISCGGDNVGSQNVHWYQQRPGQAPVLVIYRDSNRPSGIPERFSGSKSGNTATLTISRAQAGDEADYYCQVWDSSTVAFGGGTKLTVL
B4: S728-1157 Fab (Fab, V domains shown)
VH: B3 VH
VL: B3 VL
B5: S626-161 Fab (Fab, V domains shown)
VH: QLQLQESGPGLVKPSEALSLTCTVSGGSISTSNYYWGWIRQPPGKGLEWIGSIYYRGGTHYNPSLKTRVTISVDTSKNQFSLKLSSVTAADTAVYYCARHTYFYDIVGAAVWEPFDIWGQGTMVTVSS
VL: not shown
B6: S626-161 IgG (antibody, V domains shown)
VH: B5 VH
VL: not shown

The first assay addresses T1, spike WT-6P (SARS-CoV-2, wildtype (Wuhan-Hu-1 type), UniProt P0DTC2, stabilised, biotinylated (EZ-Link Sulfo-NHS-Biotin) for BLI). Kind of assay: BLI. On the technique in general: Biolayer interferometry detects binding as a change in optical thickness at a sensor tip.
Consider B1, for which the binding result is given as “binds”.

Consider B2, for which the binding result is on record as “binds”.

Take B3: the binding result is on record as “binds”.

On to B4, for which the binding result was “binds”.

As to B5, the binding result is on record as “binds”.

Another assay concerns the target spike BA.1 Omicron-6P (SARS-CoV-2, Omicron BA.1, strain, biotinylated (EZ-Link Sulfo-NHS-Biotin) for BLI). Briefly: ELISA. In general terms: ELISA stands for enzyme-linked immunosorbent assay.
In the case of B1, the “fold increase of ELISA binding compared with spike BA.1-2P” value (shortened to “fold increase of ELISA binding”) is above 3 fold.

Consider B3, for which the “fold increase of ELISA binding” value was above 3 fold.

Take B6: the “fold increase of ELISA binding” value is above 3 fold.

For the next assay, the target named is T1, spike WT-6P. Kind of assay: ELISA.
Consider B6, for which the binding result was “binds”.

The values are drawn from paper doi:10.1101/2022.10.31.514592 (bioRxiv, 2022).
